# According to PMC5414174, “DNA replication licensing factor Cdc6 and Plk4 kinase antagonistically regulate centrosome duplication via Sas-6” (Nature Communications, 2017):
# B1: GFP-tagged Cdc6 WT [human] / Myc-tagged Sas-6 [human] (parent)
# chain 1: MPQTRSQAQATISFPKRKLSRALNKAKNSSDAKLEPTNVQTVTCSPRVKALPLSPRKRLGDDNLCNTPHLPPCSPPKQGKKENGPPHSHTLKGRRLVFDNQLTIKSPSKRELAKVHQNKILSSVRKSQEITTNSEQRCPLKKESACVRLFKQEGTCYQQAKLVLNTAVPDRLPAREREMDVIRNFLREHICGKKAGSLYLSGAPGTGKTACLSRILQDLKKELKGFKTIMLNCMSLRTAQAVFPAIAQEICQEEVSRPAGKDMMRKLEKHMTAEKGPMIVLVLDEMDQLDSKGQDVLYTLFEWPWLSNSHLVLIGIANTLDLTDRILPRLQAREKCKPQLLNFPPYTRNQIVTILQDRLNQVSRDQVLDNAAVQFCARKVSAVSGDVRKALDVCRRAIEIVESDVKSQTILKPLSECKSPSEPLIPKRVGLIHISQVISEVDGNRMTLSQEGAQDSFPLQQKILVCSLMLLIRQLKIKEVTLGKLYEAYSKVCRKQQVAAVDQSECLSLSGLLEARGILGLKRNKETRLTKVFFKIEEKEIEHALKDKALIGNILATGLP
# chain 2: MSQVLFHQLVPLQVKCKDCEERRVSIRMSIELQSVSNPVHRKDLVIRLTDDTDPFFLYNLVISEEDFQSLKFQQGLLVDFLAFPQKFIDLLQQCTQEHAKEIPRFLLQLVSPAAILDNSPAFLNVVETNPFKHLTHLSLKLLPGNDVEIKKFLAGCLKCSKEEKLSLMQSLDDATKQLDFTRKTLAEKKQELDKLRNEWASHTAALTNKHSQELTNEKEKALQAQVQYQQQHEQQKKDLEILHQQNIHQLQNRLSELEAANKDLTERKYKGDSTIRELKAKLSGVEEELQRTKQEVLSLRRENSTLDVECHEKEKHVNQLQTKVAVLEQEIKDKDQLVLRTKEAFDTIQEQKVVLEENGEKNQVQLGKLEATIKSLSAELLKANEIIKKLQGDLKTLMGKLKLKNTVTIQQEKLLAEKEEKLQKEQKELQDVGQSLRIKEQEVCKLQEQLEATVKKLEESKQLLKNNEKLITWLNKELNENQLVRKQDVLGPSTTPPAHSSSNTIRSGISPNLNVVDGRLTYPTCGIGYPVSSAFAFQNTFPHSISAKNTSHPGSGTKVQFNLQFTKPNASLGDVQSGATISMPCSTDKENGENVGLESKYLKKREDSIPLRGLSQNLFSNSDHQRDGTLGALHTSSKPTALPSASSAYFPGQLPNS
# Variants of: B1
# Assay: co-immunoprecipitation (anti-GFP IP, western blot quantified by ImageJ)
# Details: with Myc-tagged Sas-6 [human]; HEK293 cells co-transfected; three independent experiments; means ± s.d.; read off a plot
row,ratio to parent,Variant
1,0.42,chain 1 MPQTRSQAQATISFPKRKLSRALNKAKNSDDAKLEPTNVQTVTCSPRVKALPLSPRKRLGDDNLCNTPHLPPCSPPKQGKKENGPPHSHTLKGRRLVFDNQLTIKSPSKRELAKVHQNKILSSVRKSQEITTNSEQRCPLKKESACVRLFKQEGTCYQQAKLVLNTAVPDRLPAREREMDVIRNFLREHICGKKAGSLYLSGAPGTGKTACLSRILQDLKKELKGFKTIMLNCMSLRTAQAVFPAIAQEICQEEVSRPAGKDMMRKLEKHMTAEKGPMIVLVLDEMDQLDSKGQDVLYTLFEWPWLSNSHLVLIGIANTLDLTDRILPRLQAREKCKPQLLNFPPYTRNQIVTILQDRLNQVSRDQVLDNAAVQFCARKVSAVSGDVRKALDVCRRAIEIVESDVKSQTILKPLSECKSPSEPLIPKRVGLIHISQVISEVDGNRMTLSQEGAQDSFPLQQKILVCSLMLLIRQLKIKEVTLGKLYEAYSKVCRKQQVAAVDQSECLSLSGLLEARGILGLKRNKEDRLTKVFFKIEEKEIEHALKDKALIGNILATGLP [chain 1 S30D T527D]
2,1.7,chain 1 MPQTRSQAQATISFPKRKLSRALNKAKNSADAKLEPTNVQTVTCSPRVKALPLSPRKRLGDDNLCNTPHLPPCSPPKQGKKENGPPHSHTLKGRRLVFDNQLTIKSPSKRELAKVHQNKILSSVRKSQEITTNSEQRCPLKKESACVRLFKQEGTCYQQAKLVLNTAVPDRLPAREREMDVIRNFLREHICGKKAGSLYLSGAPGTGKTACLSRILQDLKKELKGFKTIMLNCMSLRTAQAVFPAIAQEICQEEVSRPAGKDMMRKLEKHMTAEKGPMIVLVLDEMDQLDSKGQDVLYTLFEWPWLSNSHLVLIGIANTLDLTDRILPRLQAREKCKPQLLNFPPYTRNQIVTILQDRLNQVSRDQVLDNAAVQFCARKVSAVSGDVRKALDVCRRAIEIVESDVKSQTILKPLSECKSPSEPLIPKRVGLIHISQVISEVDGNRMTLSQEGAQDSFPLQQKILVCSLMLLIRQLKIKEVTLGKLYEAYSKVCRKQQVAAVDQSECLSLSGLLEARGILGLKRNKEARLTKVFFKIEEKEIEHALKDKALIGNILATGLP [chain 1 S30A T527A]
